Each block holds one molecule with its values, some of them ahead of it.
Key:
[1] = biological target: eIF1 (yeast (S. cerevisiae)) (UniProt P32911); test: ITC
[2] = biological target: GST-eIF3c-G_(1–58) (yeast (S. cerevisiae)) (UniProt P32497); test: pull-down
[3] = biological target: GST-eIF3c-E_(87–163) (yeast (S. cerevisiae)) (UniProt P32497); test: pull-down
eIF1 = eIF1 (yeast (S. cerevisiae), UniProt P32911 1-108); test: ITC
eIF1-L96P = eIF1-L96P (yeast (S. cerevisiae), UniProt P32911 1-108, L96P); test: ITC
Sequence of eIF1-L96P (P32911 whole entry L96P): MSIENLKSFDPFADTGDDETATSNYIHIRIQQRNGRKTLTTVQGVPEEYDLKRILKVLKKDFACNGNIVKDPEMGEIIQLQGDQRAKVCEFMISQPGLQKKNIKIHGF

eIF1-K37E = eIF1-K37E (yeast (S. cerevisiae), UniProt P32911 1-108, K37E); test: ITC
Sequence of eIF1-K37E (P32911 whole entry K37E): as the sequence (P32911 whole entry L96P) above, with K37E, P96L counted along it

Sequence of eIF1 (P32911 whole entry): as the sequence (P32911 whole entry L96P) above, with P96L counted along it
Sequence of eIF1 (yeast (S. cerevisiae)) (P32911 whole entry): as the sequence (P32911 whole entry L96P) above, with P96L counted along it

Molecule: eIF1 (from UniProt P32911 1-108) (natural protein)
amount of eIF1 bound relative to that bound to GST-eIF3c-F [2]: < 10% | amount of eIF1 bound relative to that bound to GST-eIF3c-F [3]: < 10%

B2: eIF3c-B_(36–163) (domain or fragment, yeast (S. cerevisiae), UniProt P32497 36-163, looked up)
chain: SESELDQESDDSFFNESESESEADVDSDDSDAKPYGPDWFKKSEFRKQGGGSNKFLKSSNYDSSDEESDEEDGKKVVKSAKEKLLDEMQDVYNKISQAENSDDWLTISNEFDLISRLLVRAQQQNWGT
fold reduction of affinity against WT eIF1 (eIF1-L96P): 10 fold | fold reduction of binding against WT eIF1 (eIF1-K37E): 4 fold

Next, values leading:

Kd [1]: > 100000 nM | stoichiometry N (eIF3c molecules bound per eIF1 molecule) [1]: 0.4
Molecule: eIF3c-E_(87–163) (from UniProt P32497 87-163) (domain or fragment)

Kd (eIF1): ~1000 nM
B1: eIF3c-C_(36–87) (domain or fragment, yeast (S. cerevisiae), UniProt P32497 36-87, looked up)
chain: SESELDQESDDSFFNESESESEADVDSDDSDAKPYGPDWFKKSEFRKQGGGS

Kd (eIF1): ~8000 nM | stoichiometry N (eIF1): 1 eIF3c molecules bound per eIF1 molecule
B3: eIF3c-D_(58–163) (domain or fragment, yeast (S. cerevisiae), UniProt P32497 58-163, looked up)
chain: ADVDSDDSDAKPYGPDWFKKSEFRKQGGGSNKFLKSSNYDSSDEESDEEDGKKVVKSAKEKLLDEMQDVYNKISQAENSDDWLTISNEFDLISRLLVRAQQQNWGT

Kd (eIF1): ~1000 nM
B4: eIF3c-F_(1–87) (domain or fragment, yeast (S. cerevisiae), UniProt P32497 1-87, looked up)
chain: MSRFFSSNYEYDVASSSSEEDLLSSSEEDLLSSSSSESELDQESDDSFFNESESESEADVDSDDSDAKPYGPDWFKKSEFRKQGGGS

— paper PMC5382721 (Cell reports, 2017)
